PMC5120349, “Reconstitution of Targeted Deadenylation by the Ccr4-Not Complex and the YTH Domain Protein Mmi1”

T1: Mmi1 YTH domain (Schizosaccharomyces pombe, UniProt O74958 282-488)
T1 sequence: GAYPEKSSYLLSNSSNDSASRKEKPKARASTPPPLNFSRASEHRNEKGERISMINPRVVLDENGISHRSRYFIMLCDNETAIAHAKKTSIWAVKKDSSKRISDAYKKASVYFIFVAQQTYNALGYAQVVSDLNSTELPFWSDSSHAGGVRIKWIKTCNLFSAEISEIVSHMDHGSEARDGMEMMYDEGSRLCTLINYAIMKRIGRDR


What was measured:
Mmi1 YTH domain = biological target: T1, Mmi1 YTH domain; assay: fluorescence polarization; 20 mM HEPES pH 7.5, 100 mM NaCl, 1 mM Mg(OAc)2, 0.1 mM TCEP, 10 nM labeled RNA, 10 min at room temperature; Hill-slope fit; conditions: protein: recombinant
[1] = biological target: recombinant S. pombe Ccr4-Not complex (seven core subunits) (S. pombe) (UniProt O74856)
Chain of recombinant S. pombe Ccr4-Not complex (seven core subunits) (S. pombe) (O74856 whole entry, looked up, tested part not stated, one chain of several): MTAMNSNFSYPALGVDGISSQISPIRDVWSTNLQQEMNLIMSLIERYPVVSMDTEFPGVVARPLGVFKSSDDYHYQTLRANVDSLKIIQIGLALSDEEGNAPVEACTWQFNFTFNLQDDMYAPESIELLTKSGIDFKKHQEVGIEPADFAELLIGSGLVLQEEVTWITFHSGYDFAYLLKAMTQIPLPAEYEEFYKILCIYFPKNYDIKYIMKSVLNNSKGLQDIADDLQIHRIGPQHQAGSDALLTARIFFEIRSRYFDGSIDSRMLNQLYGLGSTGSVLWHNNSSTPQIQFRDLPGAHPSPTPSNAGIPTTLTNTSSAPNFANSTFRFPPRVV

| Binder | Kd (Mmi1 YTH domain; label: 3' 6-FAM) [nM] | also measured |
| --- | --- | --- |
| CUCUUGAAACCUAAAAAGC (ssRNA) [rec8 UGAAAC] | 216 ± 14 |  |
| CUCUUUAAACCUAAAAAGC (ssRNA) [rec8 UUAAAC] | 226 ± 15 |  |
| CUCUUUAAAGCUAAAAAGC (ssRNA) [rec8 UUAAAG] | 231 ± 7 |  |
| CUCUUUACACCUAAAAAGC (ssRNA) [rec8 UUACAC] | 460 ± 25 |  |
| Mmi1 (recombinant, S. pombe) (natural protein) MSNTNFSTSRSSKSIPELPNLEALRSLWPPPSLNESGDTRSVWTTHTGEPVASSVLSTSGSNNFSSPLKRPAPESHDAPIGRRLMVDDPRLIKHGKYDFSRHCTDYGHSYEWPYFRSLRRESMLYHTSGSYPESQPPYSSYSTDAPHYYHAGSESSAYYDSRSRLHGIQPPPKRRTLSPPPRRLADPVVVGSSRYVEEEVYRRPPYTLASEVPSSASAYQAGYSSYPVRSSPQLSHEDTRHGIASSGSTRYPFVPANTRASHSPSLLEPYAHSLPSSVAPVGAYPEKSSYLLSNSSNDSASRKEKPKARASTPPPLNFSRASEHRNEKGERISMINPRVVLDENGISHRSRYFIMLCDNETAIAHAKKTSIWAVKKDSSKRISDAYKKASVYFIFVAQQTYNALGYAQVVSDLNSTELPFWSDSSHAGGVRIKWIKTCNLFSAEISEIVSHMDHGSEARDGMEMMYDEGSRLCTLINYAIMKRIGRDR |  | rate of deadenylation of the rec8^UUAAAC-A30 target RNA by Ccr4-Not with bound Mmi1, against Ccr4-Not without Mmi1 [1]: 5 fold |
| CUCUUUCAACCUAAAAAGC (ssRNA) [rec8 UUCAAC] | 433 ± 33 |  |
| CUCUUUAACCCUAAAAAGC (ssRNA) [rec8 UUAACC] | 311 ± 13 |  |
| CAGCUCCGCAUCCCUUUCCC (ssRNA) [20-mer unstructured RNA] |  | Kd (Mmi1 YTH domain): 13900 ± 1600 nM |
| CUCUUUCUCCCUACAAAGC (ssRNA) [rec8 UUCUCC] | 1370 ± 140 |  |
